Square brackets hold non-standard residues; d marks the D form.

B1: AP523m (peptide)
peptide: Ac-RGE[dC]N[dL]S[dW]M[dN][dE][dY][dY]GW[dT]M[dN]M[dK]MGR-NH2
SMILES: CSCC[C@H](NC(=O)[C@@H](CCCCN)NC(=O)[C@H](CCSC)NC(=O)[C@@H](CC(N)=O)NC(=O)[C@H](CCSC)NC(=O)[C@H](NC(=O)[C@H](Cc1c[nH]c2ccccc12)NC(=O)CNC(=O)[C@@H](Cc1ccc(O)cc1)NC(=O)[C@@H](Cc1ccc(O)cc1)NC(=O)[C@@H](CCC(=O)O)NC(=O)[C@@H](CC(N)=O)NC(=O)[C@H](CCSC)NC(=O)[C@@H](Cc1c[nH]c2ccccc12)NC(=O)[C@H](CO)NC(=O)[C@@H](CC(C)C)NC(=O)[C@H](CC(N)=O)NC(=O)[C@@H](CS)NC(=O)[C@H](CCC(=O)O)NC(=O)CNC(=O)[C@H](CCCNC(=N)N)NC(C)=O)[C@H](C)O)C(=O)NCC(=O)N[C@@H](CCCNC(=N)N)C(N)=O
B2: AP523d (peptide)
peptide: Ac-RGE[dC]N[dL]S[dW]M[dN][dE][dY][dY]GW[dT]M[dN]M[dK]MGR-NH2
modifications: also: disulfide-linked homodimer (Cys4 to Cys4 of other copy), disulfide at 4, other end not in the chain
B3: AP522m (peptide)
peptide: Ac-RGE[dC]N[dL]S[dW]MNEYYGW[dT]M[dN]M[dK]MGR-NH2
SMILES: CSCC[C@H](NC(=O)[C@@H](CCCCN)NC(=O)[C@H](CCSC)NC(=O)[C@@H](CC(N)=O)NC(=O)[C@H](CCSC)NC(=O)[C@H](NC(=O)[C@H](Cc1c[nH]c2ccccc12)NC(=O)CNC(=O)[C@H](Cc1ccc(O)cc1)NC(=O)[C@H](Cc1ccc(O)cc1)NC(=O)[C@H](CCC(=O)O)NC(=O)[C@H](CC(N)=O)NC(=O)[C@H](CCSC)NC(=O)[C@@H](Cc1c[nH]c2ccccc12)NC(=O)[C@H](CO)NC(=O)[C@@H](CC(C)C)NC(=O)[C@H](CC(N)=O)NC(=O)[C@@H](CS)NC(=O)[C@H](CCC(=O)O)NC(=O)CNC(=O)[C@H](CCCNC(=N)N)NC(C)=O)[C@H](C)O)C(=O)NCC(=O)N[C@@H](CCCNC(=N)N)C(N)=O
B4: AP516m (peptide)
peptide: Ac-[dR]G[dE]M[dN]Y[dF]W[dM][dN][dE][dY][dY]G[dW]T[dM]N[dC]K[dM]G[dR]-NH2
SMILES: CSCC[C@H](NC(=O)[C@@H](CCC(=O)O)NC(=O)CNC(=O)[C@@H](CCCNC(=N)N)NC(C)=O)C(=O)N[C@H](CC(N)=O)C(=O)N[C@@H](Cc1ccc(O)cc1)C(=O)N[C@H](Cc1ccccc1)C(=O)N[C@@H](Cc1c[nH]c2ccccc12)C(=O)N[C@H](CCSC)C(=O)N[C@H](CC(N)=O)C(=O)N[C@H](CCC(=O)O)C(=O)N[C@H](Cc1ccc(O)cc1)C(=O)N[C@H](Cc1ccc(O)cc1)C(=O)NCC(=O)N[C@H](Cc1c[nH]c2ccccc12)C(=O)N[C@H](C(=O)N[C@H](CCSC)C(=O)N[C@@H](CC(N)=O)C(=O)N[C@H](CS)C(=O)N[C@@H](CCCCN)C(=O)N[C@H](CCSC)C(=O)NCC(=O)N[C@H](CCCNC(=N)N)C(N)=O)[C@@H](C)O
B5: AP522d (peptide)
peptide: Ac-RGE[dC]N[dL]S[dW]MNEYYGW[dT]M[dN]M[dK]MGR-NH2
modifications: also: disulfide-linked homodimer (Cys4 to Cys4 of other copy), disulfide at 4, other end not in the chain
B6: AP521m (peptide)
peptide: Ac-RGE[dC]N[dL]S[dW]MNEYSGW[dT]M[dN]M[dK]MGR-NH2
SMILES: CSCC[C@H](NC(=O)[C@@H](CCCCN)NC(=O)[C@H](CCSC)NC(=O)[C@@H](CC(N)=O)NC(=O)[C@H](CCSC)NC(=O)[C@H](NC(=O)[C@H](Cc1c[nH]c2ccccc12)NC(=O)CNC(=O)[C@H](CO)NC(=O)[C@H](Cc1ccc(O)cc1)NC(=O)[C@H](CCC(=O)O)NC(=O)[C@H](CC(N)=O)NC(=O)[C@H](CCSC)NC(=O)[C@@H](Cc1c[nH]c2ccccc12)NC(=O)[C@H](CO)NC(=O)[C@@H](CC(C)C)NC(=O)[C@H](CC(N)=O)NC(=O)[C@@H](CS)NC(=O)[C@H](CCC(=O)O)NC(=O)CNC(=O)[C@H](CCCNC(=N)N)NC(C)=O)[C@H](C)O)C(=O)NCC(=O)N[C@@H](CCCNC(=N)N)C(N)=O
B7: AP500m (peptide)
peptide: Ac-RGN[dW]N[dE]S[dK]MNEYSGW[dM]L[dM]C[dT]MGR-NH2
SMILES: CSCC[C@H](NC(=O)[C@@H](CCCCN)NC(=O)[C@H](CO)NC(=O)[C@@H](CCC(=O)O)NC(=O)[C@H](CC(N)=O)NC(=O)[C@@H](Cc1c[nH]c2ccccc12)NC(=O)[C@H](CC(N)=O)NC(=O)CNC(=O)[C@H](CCCNC(=N)N)NC(C)=O)C(=O)N[C@@H](CC(N)=O)C(=O)N[C@@H](CCC(=O)O)C(=O)N[C@@H](Cc1ccc(O)cc1)C(=O)N[C@@H](CO)C(=O)NCC(=O)N[C@@H](Cc1c[nH]c2ccccc12)C(=O)N[C@H](CCSC)C(=O)N[C@@H](CC(C)C)C(=O)N[C@H](CCSC)C(=O)N[C@@H](CS)C(=O)N[C@@H](C(=O)N[C@@H](CCSC)C(=O)NCC(=O)N[C@@H](CCCNC(=N)N)C(N)=O)[C@H](C)O
B8: AP524m (peptide)
peptide: Ac-RCE[dM]N[dL]S[dW]M[dN][dE][dY][dY]GW[dT]M[dN]M[dK]MGR-NH2
SMILES: CSCC[C@H](NC(=O)[C@@H](CCCCN)NC(=O)[C@H](CCSC)NC(=O)[C@@H](CC(N)=O)NC(=O)[C@H](CCSC)NC(=O)[C@H](NC(=O)[C@H](Cc1c[nH]c2ccccc12)NC(=O)CNC(=O)[C@@H](Cc1ccc(O)cc1)NC(=O)[C@@H](Cc1ccc(O)cc1)NC(=O)[C@@H](CCC(=O)O)NC(=O)[C@@H](CC(N)=O)NC(=O)[C@H](CCSC)NC(=O)[C@@H](Cc1c[nH]c2ccccc12)NC(=O)[C@H](CO)NC(=O)[C@@H](CC(C)C)NC(=O)[C@H](CC(N)=O)NC(=O)[C@@H](CCSC)NC(=O)[C@H](CCC(=O)O)NC(=O)[C@H](CS)NC(=O)[C@H](CCCNC(=N)N)NC(C)=O)[C@H](C)O)C(=O)NCC(=O)N[C@@H](CCCNC(=N)N)C(N)=O
B9: AP521d (peptide)
peptide: Ac-RGE[dC]N[dL]S[dW]MNEYSGW[dT]M[dN]M[dK]MGR-NH2
modifications: also: disulfide-linked homodimer (Cys4 to Cys4 of other copy), disulfide at 4, other end not in the chain
B10: AP520m (peptide)
peptide: Ac-RGE[dM]N[dL]S[dW]MNEYSGW[dT]M[dN]C[dK]MGR-NH2
SMILES: CSCC[C@H](NC(=O)[C@@H](CCCCN)NC(=O)[C@H](CS)NC(=O)[C@@H](CC(N)=O)NC(=O)[C@H](CCSC)NC(=O)[C@H](NC(=O)[C@H](Cc1c[nH]c2ccccc12)NC(=O)CNC(=O)[C@H](CO)NC(=O)[C@H](Cc1ccc(O)cc1)NC(=O)[C@H](CCC(=O)O)NC(=O)[C@H](CC(N)=O)NC(=O)[C@H](CCSC)NC(=O)[C@@H](Cc1c[nH]c2ccccc12)NC(=O)[C@H](CO)NC(=O)[C@@H](CC(C)C)NC(=O)[C@H](CC(N)=O)NC(=O)[C@@H](CCSC)NC(=O)[C@H](CCC(=O)O)NC(=O)CNC(=O)[C@H](CCCNC(=N)N)NC(C)=O)[C@H](C)O)C(=O)NCC(=O)N[C@@H](CCCNC(=N)N)C(N)=O
B11: AP506d (peptide)
peptide: Ac-[dR]G[dN]W[dN]E[dS]K[dM][dN][dE][dY][dY]G[dW]M[dL]M[dC]T[dM]G[dR]-NH2
modifications: also: disulfide-linked homodimer (Cys19 to Cys19 of other copy), disulfide at 19, other end not in the chain
B12: AP516d (peptide)
peptide: Ac-[dR]G[dE]M[dN]Y[dF]W[dM][dN][dE][dY][dY]G[dW]T[dM]N[dC]K[dM]G[dR]-NH2
modifications: also: disulfide-linked homodimer (Cys19 to Cys19 of other copy), disulfide at 19, other end not in the chain

This assay deals with Aβ42 (UniProt P05067 672-713). Nature of the assay: cell-based or functional assay.
Sequence of Aβ42 (P05067 672-713 limits assumed): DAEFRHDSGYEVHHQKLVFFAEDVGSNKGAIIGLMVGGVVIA
B1: the “% inhibition of fibril formation (ThT), AP:Aβ42 1:1” value was found to be 49%; the “% inhibition of fibril formation (ThT), AP:Aβ42 1:10” value was 9%; the “% inhibition of fibril formation (ThT), AP:Aβ42 1:100” value (shortened to “% inhibition … AP:Aβ42 1:100”) worked out at 0%.

On to B2, for which the “% inhibition of fibril formation (ThT), AP:Aβ42 1:1” value is 100%; the “% inhibition of fibril formation (ThT), AP:Aβ42 1:10” value stood at 87.3%; the “% inhibition … AP:Aβ42 1:100” value is 40.3%.

On to B3, for which the “% inhibition of fibril formation (ThT), AP:Aβ42 1:1” value stood at 45.7%; the “% inhibition of fibril formation (ThT), AP:Aβ42 1:10” value was found to be 12.6%; the “% inhibition … AP:Aβ42 1:100” value is 0%.

As for B4, the “% inhibition of fibril formation (ThT), AP:Aβ42 1:1” value amounted to 76.6%; the “% inhibition of fibril formation (ThT), AP:Aβ42 1:10” value was 56.4%; the “% inhibition … AP:Aβ42 1:100” value is 0%.

As to Ac-RGE[dM]N[dL]S[dW]MNEYSGW[dT]M[dN]C[dK]MGR-NH2 (also: disulfide-linked homodimer via Cys19) [AP520d], the “% inhibition of fibril formation (ThT), AP:Aβ42 1:1” value is 100%; the “% inhibition of fibril formation (ThT), AP:Aβ42 1:10” value is 91.2%; the “% inhibition … AP:Aβ42 1:100” value is 45.3%.

For B5, the “% inhibition of fibril formation (ThT), AP:Aβ42 1:1” value stood at 100%; the “% inhibition of fibril formation (ThT), AP:Aβ42 1:10” value is 88.1%; the “% inhibition … AP:Aβ42 1:100” value was found to be 52.4%.

As for B6, the “% inhibition of fibril formation (ThT), AP:Aβ42 1:1” value was determined as 74%; the “% inhibition of fibril formation (ThT), AP:Aβ42 1:10” value was 34.6%; the “% inhibition … AP:Aβ42 1:100” value was found to be 0%.

As to B7, the “% inhibition of fibril formation (ThT), AP:Aβ42 1:1” value is 76.6%; the “% inhibition of fibril formation (ThT), AP:Aβ42 1:10” value worked out at 9%; the “% inhibition … AP:Aβ42 1:100” value came out at 0%.

B8: the “% inhibition of fibril formation (ThT), AP:Aβ42 1:1” value was found to be 45.8%; the “% inhibition of fibril formation (ThT), AP:Aβ42 1:10” value was 7.2%; the “% inhibition … AP:Aβ42 1:100” value was 0%.

As to B9, the “% inhibition of fibril formation (ThT), AP:Aβ42 1:1” value is 100%; the “% inhibition of fibril formation (ThT), AP:Aβ42 1:10” value came to 100%; the “% inhibition … AP:Aβ42 1:100” value came to 54.3%.

As to B10, the “% inhibition of fibril formation (ThT), AP:Aβ42 1:1” value amounted to 47%; the “% inhibition of fibril formation (ThT), AP:Aβ42 1:10” value came out at 33.1%; the “% inhibition … AP:Aβ42 1:100” value was 0%.

Regarding B11, the “% inhibition of fibril formation (ThT), AP:Aβ42 1:1” value was determined as 100%; the “% inhibition of fibril formation (ThT), AP:Aβ42 1:10” value came to 100%; the “% inhibition … AP:Aβ42 1:100” value turned out to be 49.1%.

Consider B12, for which the “% inhibition of fibril formation (ThT), AP:Aβ42 1:1” value was determined as 100%; the “% inhibition of fibril formation (ThT), AP:Aβ42 1:10” value is 98.2%; the “% inhibition … AP:Aβ42 1:100” value was 51.3%.

The values are drawn from patent US20230048960A1 (University of Washington, published 2023).
